# Key:
# [1] = molecular target: human PD-L1 on CHO-K1 cells (CHO-K1/hPD-L1, Nanjing Genscript, M00543) (human) (UniProt Q9NZQ7); test: flow cytometry on CHO-K1/hPD-L1 cells
# [2] = molecular target: human PD-L1 on CHO-K1 cells (CHO-K1/hPD-L1, Nanjing Genscript, M00543) (human) (UniProt Q9NZQ7); test: flow cytometry competition: biotin-hPD-1 binding to CHO-K1/hPD-L1 cells
# [3] = molecular target: cynomolgus PD-L1 on CHO-K1 cells (CHO-K1/cynoPD-L1, Nanjing Genscript, M00573) (cynomolgus) (UniProt G7PSE7); test: flow cytometry on CHO-K1/cynoPD-L1 cells
# Sequence of cynomolgus PD-L1 on CHO-K1 cells (CHO-K1/cynoPD-L1, Nanjing Genscript, M00573) (cynomolgus) (G7PSE7 entry or part of it limits assumed, one chain of several): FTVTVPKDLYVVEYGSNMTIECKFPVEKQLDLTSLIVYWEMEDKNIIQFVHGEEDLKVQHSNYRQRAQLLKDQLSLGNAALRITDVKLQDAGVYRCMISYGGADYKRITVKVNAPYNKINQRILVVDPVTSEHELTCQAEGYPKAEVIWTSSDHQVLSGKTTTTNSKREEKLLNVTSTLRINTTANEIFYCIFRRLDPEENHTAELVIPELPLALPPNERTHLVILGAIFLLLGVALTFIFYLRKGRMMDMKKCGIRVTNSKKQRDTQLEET
# Sequence of human PD-L1 on CHO-K1 cells (CHO-K1/hPD-L1, Nanjing Genscript, M00543) (human) (Q9NZQ7 19-290, one chain of several): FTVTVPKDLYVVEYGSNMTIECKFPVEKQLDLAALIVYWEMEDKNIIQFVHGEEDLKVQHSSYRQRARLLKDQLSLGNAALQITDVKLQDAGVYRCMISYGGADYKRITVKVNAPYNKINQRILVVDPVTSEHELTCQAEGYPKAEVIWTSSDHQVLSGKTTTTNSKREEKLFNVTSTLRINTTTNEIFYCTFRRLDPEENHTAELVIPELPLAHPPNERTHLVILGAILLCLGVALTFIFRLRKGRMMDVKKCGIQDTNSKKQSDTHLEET
substance,measurement,setting,value
isotype antibody hIgG1 iso,MFI maximum value,[1],305 MFI
same,Maximum inhibition rate (%),[2],0.68%
same,MFI maximum value,[3],935 MFI

# — patent publication US20260258137A1
